Data published in the supplement of paper PMC7877785.
± gives the uncertainty stated by the source.

Test: self-splicing fitness, log relative to wild type (ln ratio); higher = more splicing; Tetrahymena group I intron in knt gene, E. coli kanamycin selection, DiMSum; sequences stand for … in CUCUCU…GGAGGGAAAAGUUAUCAGGCAUGCACCUGGUAGCUAGUCUUUAAACCAAUAGAUUGCAUCGGUUUAAAAGGCAAGACCGUCAAAUUGCGGGAAAGGGGUCAACAGCCGUUCAGUACCAAGUCUCAGGGGAAACUUUGAGAUGGCCUUGCAAAGGGUAUGGUAAUAAGCUGACGGACAUGGUCCUAACCACGCAGCCAAGUCCUAAGUCAACAGAUCUUCUGUUGAUAUGGAUGCAGUUCACAGACUAAAUGUCGGUCGGGGAAGAUGUAUUCUUCUCAUAAGAUAUAGUCGGACCUCUCCUUAAUGGGAGCUAGCGGAUGAAGUGAUGCAACACUGGAGCCGCUGGGAACUAAUUUGUAUGCGAAAGUAUAUUGAUUAGUUUUGGAGUACUCGUGGUCG
In short: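 DiMSum derived fitness as the error-weighted combination of fold changes across replicates, kanamycin versus no kanamycin, normalised to wild type. E. coli BL21(DE3) held the library, which randomised all eight P1ex-region intron nucleotides within the knt kanamycin-resistance gene on pET-22b(+). Six replicate transformations grew overnight at 37°C or 30°C on LB agar with or without 25 μg/mL kanamycin, also containing 100 μg/mL carbenicillin, 50 μM IPTG and 0.2% rhamnose, and pooled colonies were amplicon-sequenced on an Illumina HiSeq 2500.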

Row | Sequence | self-splicing fitness (ln) (30 °C) | self-splicing fitness (ln) (37 °C)
1 | CAGCAGCAAUAUUACGGAAG | -0.307 ± 0.054 | -0.29 ± 0.068
2 | CAGCAGCAAUAUUACGGAGA | -3.3 ± 0.31 | -3.02 ± 0.22
3 | CAGCAGCAAUAUUACGGAUA | -3.18 ± 0.24 | -2.41 ± 0.17
4 | CAGCAGCAAUAUUACGGGAG | -1.2 ± 0.061 | -0.908 ± 0.082
5 | CAGCAGCAAUAUUACGGUAG | -0.155 ± 0.087 | 0.0584 ± 0.11
6 | CAGCAGCAAUAUUACGGUUC | -2.92 ± 0.26 | -1.5 ± 0.17
7 | CAGCAGCAAUAUUACGUAUG | -2.19 ± 0.1 | -2.5 ± 0.15
8 | CAGCAGCAAUAUUACGUCAA | -2.85 ± 0.21 | -3.37 ± 0.3
9 | CAGCAGCAAUAUUACGUUGG | -1.91 ± 0.072 | -0.788 ± 0.084
10 | CAGGAGCAAUAUUACGACCA |  | -1.27 ± 0.31
11 | CAGGAGCAAUAUUACGAGAU | -3.82 ± 0.29 | -3.8 ± 0.39
12 | CAGGAGCAAUAUUACGAGCU | -3.44 ± 0.47 | -2.52 ± 0.41
13 | CAGGAGCAAUAUUACGAGGA | -3.55 ± 0.25 | -3.69 ± 0.29
14 | CAGGAGCAAUAUUACGAGUA |  | -2.34 ± 0.42
15 | CAGGAGCAAUAUUACGAGUU | -3.36 ± 0.43 | 
16 | CAGGAGCAAUAUUACGAUGA | -1.76 ± 0.41 | 
17 | CAGGAGCAAUAUUACGAUUC |  | -1.93 ± 0.38
18 | CAGGAGCAAUAUUACGCUGA | -4.15 ± 0.23 | -3.13 ± 0.2
19 | CAGGAGCAAUAUUACGGGAU | -3.55 ± 0.22 | -2.28 ± 0.23
20 | CAGGAGCAAUAUUACGGGCC | -3.76 ± 0.42 | 
21 | CAGGAGCAAUAUUACGGGGG | -2.9 ± 0.19 | -2.4 ± 0.25
22 | CAGGAGCAAUAUUACGGUCG | 0.425 ± 0.084 | 0.544 ± 0.12
23 | CAGGAGCAAUAUUACGGUGA | -2.96 ± 0.22 | -3 ± 0.27
24 | CAGGAGCAAUAUUACGGUUC | -2.71 ± 0.43 | -1.74 ± 0.28
25 | CAGGAGCAAUAUUACGUACU |  | -2.97 ± 0.38

Row | Sequence | self-splicing fitness (ln) (30 °C) | self-splicing fitness (ln) (37 °C)
26 | CAGGAGCAAUAUUACGUCAU |  | -1.89 ± 0.33
27 | CAGGAGCAAUAUUACGUCUU | -2.33 ± 0.095 | -2.16 ± 0.11
28 | CAGGAGCAAUAUUACGUGCG | -1.56 ± 0.079 | -0.807 ± 0.088
29 | CAGGAGCAAUAUUACGUGGA | -3.47 ± 0.2 | -3.3 ± 0.26
30 | CAGGAGCAAUAUUACGUGGU | -4.08 ± 0.23 | -3.15 ± 0.23
31 | CAGGAGCAAUAUUACGUUAC | -2.43 ± 0.13 | -3.01 ± 0.21
32 | CAGGAGCAAUAUUACGUUAU | -3.4 ± 0.29 | -2.71 ± 0.3
33 | CAGGAGCAAUAUUACGUUCC | -3.33 ± 0.23 | -2.04 ± 0.27
34 | CAGUAGCAAUAUUACGACCC | -3.52 ± 0.44 | -0.507 ± 0.34
35 | CAGUAGCAAUAUUACGAGGU |  | -2.88 ± 0.34
36 | CAGUAGCAAUAUUACGCACG | -1.27 ± 0.11 | -0.303 ± 0.17
37 | CAGUAGCAAUAUUACGCCCA | -2.16 ± 0.26 | -0.476 ± 0.45
38 | CAGUAGCAAUAUUACGCCCG | 0.504 ± 0.12 | -0.351 ± 0.15
39 | CAGUAGCAAUAUUACGCCUC | -2.93 ± 0.46 | -2.4 ± 0.44
40 | CAGUAGCAAUAUUACGCUCA | -0.118 ± 0.13 | 0.5 ± 0.17
41 | CAGUAGCAAUAUUACGCUCU | -2.44 ± 0.18 | -0.957 ± 0.15
42 | CAGUAGCAAUAUUACGGCGC | -1.59 ± 0.4 | -0.863 ± 0.25
43 | CAGUAGCAAUAUUACGGCUC | -1.36 ± 0.14 | 0.325 ± 0.16
44 | CAGUAGCAAUAUUACGGGGU | -4.35 ± 0.32 | -2.1 ± 0.22
45 | CAGUAGCAAUAUUACGGGUA | -3.45 ± 0.4 | -1.01 ± 0.18
46 | CAGUAGCAAUAUUACGUAGC | -3.32 ± 0.12 | -3.18 ± 0.17
47 | CAGUAGCAAUAUUACGUCUA | -0.56 ± 0.064 | -0.256 ± 0.071
48 | CAGUAGCAAUAUUACGUCUC | -3.93 ± 0.37 | -2.13 ± 0.27
49 | CAGUAGCAAUAUUACGUUAC | -3.34 ± 0.47 | -2.76 ± 0.3
50 | CAGUAGCAAUAUUACGUUCA | -0.986 ± 0.14 | -2.31 ± 0.23

Row | Sequence | self-splicing fitness (ln) (30 °C) | self-splicing fitness (ln) (37 °C)
51 | CAUAAGCAAUAUUACGAAAA |  | -3.32 ± 0.34
52 | CAUAAGCAAUAUUACGAAGG | -1.56 ± 0.11 | -1.55 ± 0.15
53 | CAUAAGCAAUAUUACGAAGU | -3.15 ± 0.17 | -2.75 ± 0.29
54 | CAUAAGCAAUAUUACGACCU | -2.63 ± 0.28 | -1.62 ± 0.33
55 | CAUAAGCAAUAUUACGACUC | -3.48 ± 0.34 | -0.925 ± 0.14
56 | CAUAAGCAAUAUUACGAGCG | 0.0605 ± 0.064 | 0.0464 ± 0.088
57 | CAUAAGCAAUAUUACGAGGC | -3.54 ± 0.35 | -2.24 ± 0.35
58 | CAUAAGCAAUAUUACGAGGG | -2.96 ± 0.17 | -2.53 ± 0.28
59 | CAUAAGCAAUAUUACGAUCU | -2.67 ± 0.23 | -1.85 ± 0.24
60 | CAUAAGCAAUAUUACGCACA | -2.05 ± 0.12 | -0.312 ± 0.11
61 | CAUAAGCAAUAUUACGCAGG | -1.84 ± 0.18 | -1.22 ± 0.18
62 | CAUAAGCAAUAUUACGCCAA | -2.33 ± 0.17 | -2.69 ± 0.32
63 | CAUAAGCAAUAUUACGCCAC | -2.8 ± 0.37 | -2.59 ± 0.39
64 | CAUAAGCAAUAUUACGCGUC | -3.98 ± 0.26 | -2.15 ± 0.2
65 | CAUAAGCAAUAUUACGCUCC | -2.87 ± 0.23 | -0.216 ± 0.49
66 | CAUAAGCAAUAUUACGCUCG | -0.821 ± 0.11 | -0.252 ± 0.12
67 | CAUAAGCAAUAUUACGGACG | 0.133 ± 0.093 | 0.568 ± 0.12
68 | CAUAAGCAAUAUUACGGCAA | -2.52 ± 0.18 | -1.61 ± 0.18
69 | CAUAAGCAAUAUUACGGGCA | -2.77 ± 0.18 | -1.8 ± 0.19
70 | CAUAAGCAAUAUUACGGGGC | -3.25 ± 0.26 | -1.22 ± 0.16
71 | CAUAAGCAAUAUUACGGUAA | -3.92 ± 0.46 | -2.77 ± 0.29
72 | CAUAAGCAAUAUUACGGUCU | -2.8 ± 0.3 | -1.51 ± 0.2
73 | CAUAAGCAAUAUUACGGUUA | -2.7 ± 0.16 | -2.05 ± 0.12
74 | CAUAAGCAAUAUUACGGUUU | -4.02 ± 0.19 | -2.69 ± 0.17
75 | CAUAAGCAAUAUUACGUAAU | -4.04 ± 0.28 | -2.16 ± 0.14

Row | Sequence | self-splicing fitness (ln) (30 °C) | self-splicing fitness (ln) (37 °C)
76 | CAUAAGCAAUAUUACGUAGA | -3.68 ± 0.13 | -1.97 ± 0.12
77 | CAUAAGCAAUAUUACGUCUC | -3.68 ± 0.3 | -2.52 ± 0.29
78 | CAUAAGCAAUAUUACGUGAG | -3.12 ± 0.13 | -0.711 ± 0.099
79 | CAUAAGCAAUAUUACGUUCA | -3.29 ± 0.13 | -1.95 ± 0.13
80 | CAUAAGCAAUAUUACGUUCU | -3.28 ± 0.23 | -3.1 ± 0.3
81 | CAUCAGCAAUAUUACGAACA | -2.82 ± 0.25 | -1.85 ± 0.21
82 | CAUCAGCAAUAUUACGAACC | -2.59 ± 0.24 | -0.525 ± 0.46
83 | CAUCAGCAAUAUUACGAGAG | -1.9 ± 0.072 | -0.955 ± 0.075
84 | CAUCAGCAAUAUUACGAGAU | -3.84 ± 0.18 | -3.71 ± 0.21
85 | CAUCAGCAAUAUUACGAGGC | -3.77 ± 0.2 | -2.64 ± 0.21
86 | CAUCAGCAAUAUUACGAGGU | -3.46 ± 0.21 | -2.86 ± 0.22
87 | CAUCAGCAAUAUUACGAGUC | -4.85 ± 0.34 | -1.6 ± 0.21
88 | CAUCAGCAAUAUUACGAUAU | -1.76 ± 0.073 | -0.599 ± 0.085
89 | CAUCAGCAAUAUUACGAUGA | -2.62 ± 0.24 | -0.687 ± 0.15
90 | CAUCAGCAAUAUUACGAUUA | -0.634 ± 0.091 | -0.682 ± 0.085
91 | CAUCAGCAAUAUUACGCAAG | -0.655 ± 0.065 | -0.304 ± 0.065
92 | CAUCAGCAAUAUUACGCCCA | -2.9 ± 0.23 | -2.1 ± 0.21
93 | CAUCAGCAAUAUUACGCGUC | -2.58 ± 0.089 | -0.783 ± 0.086
94 | CAUCAGCAAUAUUACGGGCA | -2.51 ± 0.12 | -1.83 ± 0.14
95 | CAUCAGCAAUAUUACGGGCC | -3.02 ± 0.45 | -2.29 ± 0.47
96 | CAUCAGCAAUAUUACGGGCU | -4.04 ± 0.31 | -2.48 ± 0.2
97 | CAUCAGCAAUAUUACGUACG | 0.0534 ± 0.077 | -0.0455 ± 0.097
98 | CAUCAGCAAUAUUACGUAGU | -1.66 ± 0.04 | -0.682 ± 0.06
